Source: paper PMC5673899, “Structural basis for receptor recognition of pollen tube attraction peptides” (Nature Communications, 2017)
Entries after “also recorded” stand apart in the source; their conditions may differ.

Experiments:
MIK1^LRR = assay: ITC, AtLURE1.2 titrated into MIK1^LRR; format: binding, Arabidopsis; settings: 25 °C, 200 mM HEPES pH 7.0, 100 mM NaCl, twenty injections of 0.5 mM AtLURE1.2 into 0.05 mM MIK1LRR
From the text: The genes of AtPRK3 ^LRR (residues 1–241), AtPRK4 ^LRR (residues 1–277), AtPRK5 ^LRR (residues 1–279), AtPRK6 ^LRR (residues 1–262), MIK1 ^LRR (residues 1–633), MIK2 ^LRR (residues 1–707) were amplified from Arabidopsis cDNA library by PCR and cloned into pFastBac-1 vector with a C-terminal 6 × His-tag. Their identities were confirmed by sequencing. The mature form of AtLURE1.1 (residues 20–94), AtLURE1.2 (residues 20–90), AtLURE1.3 (residues 21–91), and AtLURE1.4 (residues 20–90) were cloned into pFastBac-1 vector, with a modified N-terminal hemolin signal peptide and 6 × His-SUMO tag. Point mutation constructs were generated by QuickChange Site-Directed Mutagenesis Kit (Strategene). All the proteins were expressed using the Bac-to-Bac baculovirus expression system (Invitrogen) in High Five cells at 22 °C. One liter of High Five cells (2.0 × 10^6 cells mL^−1) cultured in the medium from Expression Systems was infected with 25 ml recombinant baculovirus and the media was collected after 72 h of infection. Secreted LRR proteins were purified using Ni-NTA (Novagen) and size-exclusion chromatography (Hiload 200, GE Healthcare) in buffer containing 10 mM Bis-Tris pH 6.0 and 100 mM NaCl. […]
Supplementary Figure 6: Binding affinity between MIK1LRR, MIK2LRR and AtLURE1.2 was not detected in ITC assay. […]

[1] = system: prk6 pollen tubes transformed with PRK6 of wild-type; assay: Wavy assay, prk6 pollen tubes transformed with wild-type PRK6; format: cell-based, Arabidopsis; settings: 250 nM wild-type AtLURE1.2 in medium
Description: (§1) Attraction activities of mutant AtLURE1.2 peptides were examined for semi-in-vivo pollen tubes growing through cut, pollinated pistils by gelatin-beads assay and wavy assay, [20]. For the gelatin-beads assay, pollen tubes were grown on solid pollen germination medium poured into a mold made with 1-mm thick silicone rubber and cover glasses. After hand-pollination, the topside cover glass was removed and the medium was covered with hydrated silicone oil (KF-96–100CS; Shin-Etsu). Attraction of pollen tubes toward the peptide was evaluated using AtLURE1 peptide containing gelatine beads under an inverted microscope (IX71, Olympus) equipped with a micro-manipulator (Narishige). For the AtLURE1-responsive wavy assay, the purified AtLURE1.2 peptide was added to solid pollen germination medium, which was melted at 70 °C and then cooled to a certain degree. The mixture was mixed by vortexing and poured into the mold. Pollen tubes of each genotype were grown through cut styles, as mentioned above. Each peptide (25 μM in 10 mM Bis-Tris (pH 6.0) and 100 mM NaCl) was diluted to 250 nM by cultivation medium in both assays. […]
(§2) pollen tubes. Fluorescence is from mRuby2 fused to the C-terminal of PRK6 receptors, showing that all of mutant PRK6 receptors localize normally to the plasma membrane of the pollen tube tip. […]

[2] = system: prk6 pollen tubes transformed with PRK6 ΔN239I240; assay: Wavy assay, prk6 pollen tubes transformed with ΔN239I240 PRK6; format: cell-based, Arabidopsis; settings: 250 nM wild-type AtLURE1.2 in medium
Description: as §1, §2

B1: AtLURE1.2: mature form of AtLURE1.2 (residues 20–90), defensin-like cysteine-rich peptide expressed in insect cells (protein)
chain: TLINGSSDEERTYSFSPTTSPFDPRSLNQELKIGRIGYCFDCARACMRRGKYIRTCSFERKLCRCSISDIK
modifications: left off: His6, N-terminal, cleaved | SUMO, N-terminal, cleaved
notes: mature form of AtLURE1.2 (residues 20–90), defensin-like cysteine-rich peptide expressed in insect cells
binding in ITC (MIK1^LRR): not detected; also recorded: no obvious heat was produced; also recorded: none of the purified AtPRK3^LRR, MIK1^LRR or MIK2^LRR proteins showed detectable interaction
wavy and branched pollen tube behavior [1]: severe wavy and branched behavior
wavy and branched pollen tube behavior [2]: branched behavior is not observed; also recorded: greatly compromised
